Source: patent publication US20240158475A1
Residue numbers refer to the chain shown, from its start.

B1: Mutation 1-23 (antibody, V domains shown)
VH: EVQLQQSGTELVRPGALVKLSCKASGFNIKDYYLHWVKQRPRQGLEWIGWIDPENGKTIYDPKFQDKASITSDTSTNTAYLQLRSLTSEDTAVYYCVTAYFRFVYWGQGTLVTVSA
VL: QIVLTQSPAIMSAFPGERVTMTCSASSSVRYMYWHQQKPGSSPRLLIYDTSNVASGVPVRFSGSGSGTSYSLTISRDEAMDAATYYCQQWSSTPRTFGGGTKLEIKR
B2: Mutation 1-24 (antibody, V domains shown)
VH: B1 VH with L34V, I59L, F101V
VL: B1 VL with S27T, V53I, T93Y
B3: Mutation 1-25 (antibody, V domains shown)
VH: B1 VH with L34I
VL: B1 VL with V53L
B4: Mutation 1-26 (antibody, V domains shown)
VH: B1 VH with I59L, F101Y
VL: B1 VL with T93Y
B5: Mutation 1-27 (antibody, V domains shown)
VH: B1 VH with L34V, T98S, F101V
VL: B1 VL with V53L
B6: Mutation 1-28 (antibody, V domains shown)
VH: B1 VH with L34I, I59L, T98S
VL: B1 VL with S27T, V53L, T93Y
B7: Mutation 1-29 (antibody, V domains shown)
VH: B1 VH with T98S, F101Y
VL: B1 VL with S27T, T93Y
B8: Mutation 1-30 (antibody, V domains shown)
VH: B1 VH with L34V
VL: B1 VL with V53I, T93Y
B9: Mutation 1-31 (antibody, V domains shown)
VH: B1 VH with L34I, I59L, F101V
VL: B1 VL with S27T, V53L, T93F
B10: Mutation 1-32 (antibody, V domains shown)
VH: B1 VH
VL: B1 VL with V53I
B11: Mutation 1-33 (antibody, V domains shown)
VH: B1 VH with L34V, I59L, F101Y
VL: B1 VL with S27T, V53I, T93Y
B12: Mutation 1-34 (antibody, V domains shown)
VH: B1 VH with L34I, T98S, F101V
VL: B1 VL with V53L, T93F
B13: Mutation 1-35 (antibody, V domains shown)
VH: B1 VH with I59L, T98S, F101Y
VL: B1 VL with S27T
B14: Mutation 1-36 (antibody, V domains shown)
VH: B1 VH with L34V
VL: B1 VL with V53L, T93F
B15: Mutation 1-37 (antibody, V domains shown)
VH: B1 VH with L34I, I59L, T98S, F101Y
VL: B1 VL with S27T
B16: Mutation 1-38 (antibody, V domains shown)
VH: B1 VH with I59L
VL: B1 VL with V53I, T93Y
B17: Mutation 1-39 (antibody, V domains shown)
VH: B1 VH with L34V
VL: B1 VL with S27T, V53L, T93F
B18: Mutation 1-40 (antibody, V domains shown)
VH: B1 VH with L34I, I59L, F101V
VL: B1 VL
B19: Mutation 1-41 (antibody, V domains shown)
VH: B1 VH with T98S, F101Y
VL: B1 VL with S27T, V53I, T93Y
B20: WT 1-1 (antibody, V domains shown)
VH: B1 VH with D31E, L34I, E54D, F64V
VL: B1 VL with S27T, R30K, D49E, V53I, V57F, W90Q, T93Y
B21: WT 1-4 (antibody, V domains shown)
VH: B1 VH with D31E, E54D, I59L, F64V, F101Y
VL: B1 VL with R30K, D49E, V53L, V57F, W90Q, T93F
B22: WT 1-7 (antibody, V domains shown)
VH: B1 VH with D31E, L34V, E54D, F64V, T98S, F101V
VL: B1 VL with S27T, R30K, D49E, V57F, W90Q
B23: WT 1-20 (antibody, V domains shown)
VH: B1 VH with D31E, L34I, E54D, I59L, F64V, T98S
VL: B1 VL with R30K, D49E, V53I, V57F, W90Q, T93Y
B24: Mutation 1-1 (antibody, V domains shown)
VH: B1 VH with L34I
VL: B1 VL with S27T, V53L, T93Y
B25: Mutation 1-2 (antibody, V domains shown)
VH: B1 VH with I59L, F101Y
VL: B1 VL with T93F
B26: Mutation 1-3 (antibody, V domains shown)
VH: B1 VH with L34V, T98S, F101V
VL: B1 VL with S27T, V53I
B27: Mutation 1-4 (antibody, V domains shown)
VH: B1 VH with L34I, I59L, T98S
VL: B1 VL with V53L, T93Y
B28: Mutation 1-5 (antibody, V domains shown)
VH: B1 VH with T98S, F101Y
VL: B1 VL with S27T, T93F
B29: Mutation 1-6 (antibody, V domains shown)
VH: B1 VH with L34V, F101V
VL: B1 VL with S27T, V53I
B30: Mutation 1-7 (antibody, V domains shown)
VH: B1 VH with L34I, I59L
VL: B1 VL with V53L, T93Y
B31: Mutation 1-8 (antibody, V domains shown)
VH: B1 VH with F101Y
VL: B1 VL with S27T, T93F
B32: Mutation 1-9 (antibody, V domains shown)
VH: B1 VH with L34V, I59L, T98S, F101V
VL: B1 VL with V53I
B33: Mutation 1-10 (antibody, V domains shown)
VH: B1 VH with L34I, T98S
VL: B1 VL with S27T, V53L, T93Y
B34: Mutation 1-11 (antibody, V domains shown)
VH: B1 VH with I59L, T98S, F101Y
VL: B1 VL with T93F
B35: Mutation 1-12 (antibody, V domains shown)
VH: B1 VH with L34V, I59L
VL: B1 VL with S27T, V53I
B36: Mutation 1-13 (antibody, V domains shown)
VH: B1 VH with L34I, F101Y
VL: B1 VL with V53L, T93Y
B37: Mutation 1-14 (antibody, V domains shown)
VH: B1 VH with I59L, T98S, F101V
VL: B1 VL with S27T, T93F
B38: Mutation 1-15 (antibody, V domains shown)
VH: B1 VH with L34V, F101Y
VL: B1 VL with S27T, V53I
B39: Mutation 1-16 (antibody, V domains shown)
VH: B1 VH with L34I, I59L, T98S, F101V
VL: B1 VL with T93Y

molecular target: DN-III quality control recombinant protein (produced by Fapon Biotech InC.) (dengue virus); assay: BLI, AMC sensor, antibody captured

B1 and B2 are within 1.5-fold of each other in Kd: 0.46 nM for the first, 0.53 nM for the second.

Going from B3 to B4, the Kd falls from 1.09 nM to 0.111 nM (9.8-fold).

First: B5
Second: B6
The Kd of the first is 6.4-fold lower: 0.121 nM for the first, 0.78 nM for the second. The first binds more tightly here.

B7 and B8 are within 1.5-fold of each other in Kd: 0.9 nM for the first, 0.95 nM for the second.

First: B9
Second: B10
The Kd of the first is 3-fold lower: 0.115 nM for the first, 0.35 nM for the second. The first binds more tightly here.

Going from B11 to B12, the Kd falls from 0.99 nM to 0.44 nM (2.2-fold). The second binds more tightly here.

Going from B13 to B14, the Kd falls from 1.04 nM to 0.34 nM (3.1-fold).

B15 and B16 are within 1.5-fold of each other in Kd: 0.35 nM for the first, 0.36 nM for the second.

Going from B17 to B18, the Kd falls from 0.83 nM to 0.115 nM (7.2-fold).

Compared with B19, B20 is 7.6-fold higher in Kd: 0.79 nM for the first, 6 nM for the second. The first binds more tightly here.

First: B21
Second: B22
The Kd of the first is 3.2-fold higher: 11.9 nM for the first, 3.7 nM for the second. The second binds more tightly here.

Compared with B23, B24 is 7.4-fold lower in Kd: 5.3 nM for the first, 0.72 nM for the second.

Compared with B25, B26 is 3.1-fold higher in Kd: 0.103 nM for the first, 0.32 nM for the second.

B27 and B28 are within 1.5-fold of each other in Kd: 0.29 nM for the first, 0.43 nM for the second.

Going from B29 to B30, the Kd falls from 0.8 nM to 0.11 nM (7.3-fold). The second binds more tightly here.

Compared with B31, B32 is 1.6-fold lower in Kd: 0.7 nM for the first, 0.45 nM for the second. The second binds more tightly here.

B33 and B34 are within 1.5-fold of each other in Kd: 1.14 nM for the first, 0.87 nM for the second.

Compared with B35, B36 is 2.2-fold lower in Kd: 1.09 nM for the first, 0.49 nM for the second. The second binds more tightly here.

Compared with B37, B38 is 3.8-fold higher in Kd: 0.111 nM for the first, 0.42 nM for the second. The first binds more tightly here.

Binder B39 has a Kd of 0.8 nM.

First: B1
Second: B2
The koff of the first is 2.2-fold higher: 3.86e-05 s⁻¹ for the first, 1.74e-05 s⁻¹ for the second.

Going from B3 to B4, the koff rises from 1.78e-05 s⁻¹ to 3.47e-05 s⁻¹ (1.9-fold).

B5 and B6 are within 1.5-fold of each other in koff: 3.66e-05 s⁻¹ for the first, 2.89e-05 s⁻¹ for the second.

B7 and B8 are within 1.5-fold of each other in koff: 3.23e-05 s⁻¹ for the first, 3.56e-05 s⁻¹ for the second.

Compared with B9, B10 is 3.2-fold lower in koff: 3.94e-05 s⁻¹ for the first, 1.23e-05 s⁻¹ for the second.

Compared with B11, B12 is 3.5-fold lower in koff: 4.68e-05 s⁻¹ for the first, 1.34e-05 s⁻¹ for the second.

Compared with B13, B14 is 2.8-fold lower in koff: 4.35e-05 s⁻¹ for the first, 1.53e-05 s⁻¹ for the second.

B15 and B16 are within 1.5-fold of each other in koff: 1.71e-05 s⁻¹ for the first, 1.37e-05 s⁻¹ for the second.

B17 and B18 are within 1.5-fold of each other in koff: 3.75e-05 s⁻¹ for the first, 4.95e-05 s⁻¹ for the second.

First: B19
Second: B20
The koff of the first is 1.5-fold higher: 3.47e-05 s⁻¹ for the first, 2.28e-05 s⁻¹ for the second.

First: B21
Second: B22
The koff of the first is 3.2-fold higher: 4.95e-05 s⁻¹ for the first, 1.53e-05 s⁻¹ for the second.

B23 and B24 are within 1.5-fold of each other in koff: 1.64e-05 s⁻¹ for the first, 2.38e-05 s⁻¹ for the second.

Compared with B25, B26 is 3.3-fold lower in koff: 4.99e-05 s⁻¹ for the first, 1.51e-05 s⁻¹ for the second.

Compared with B27, B28 is 2-fold higher in koff: 1.04e-05 s⁻¹ for the first, 2.11e-05 s⁻¹ for the second.

B29 and B30 are within 1.5-fold of each other in koff: 3.72e-05 s⁻¹ for the first, 3.91e-05 s⁻¹ for the second.

First: B31
Second: B32
The koff of the first is 1.7-fold higher: 2.33e-05 s⁻¹ for the first, 1.35e-05 s⁻¹ for the second.

B33 and B34 are within 1.5-fold of each other in koff: 4.21e-05 s⁻¹ for the first, 2.83e-05 s⁻¹ for the second.

First: B35
Second: B36
The koff of the first is 2.2-fold higher: 4.55e-05 s⁻¹ for the first, 2.08e-05 s⁻¹ for the second.

First: B37
Second: B38
The koff of the first is 2.4-fold higher: 4.53e-05 s⁻¹ for the first, 1.89e-05 s⁻¹ for the second.

In the case of B39, the koff is reported as 3.04e-05 s⁻¹.

B1 and B2 are within 1.5-fold of each other in kon: 44600 M⁻¹ s⁻¹ for the first, 37700 M⁻¹ s⁻¹ for the second.

Compared with B3, B4 is 9.2-fold higher in kon: 33900 M⁻¹ s⁻¹ for the first, 312000 M⁻¹ s⁻¹ for the second.

First: B5
Second: B6
The kon of the first is 8.2-fold higher: 303000 M⁻¹ s⁻¹ for the first, 37000 M⁻¹ s⁻¹ for the second.

B7 and B8 are within 1.5-fold of each other in kon: 35700 M⁻¹ s⁻¹ for the first, 37600 M⁻¹ s⁻¹ for the second.

Going from B9 to B10, the kon falls from 344000 M⁻¹ s⁻¹ to 35200 M⁻¹ s⁻¹ (9.8-fold).

Compared with B11, B12 is 1.6-fold lower in kon: 47500 M⁻¹ s⁻¹ for the first, 30600 M⁻¹ s⁻¹ for the second.

B13 and B14 are within 1.5-fold of each other in kon: 41900 M⁻¹ s⁻¹ for the first, 44900 M⁻¹ s⁻¹ for the second.

B15 and B16 are within 1.5-fold of each other in kon: 48500 M⁻¹ s⁻¹ for the first, 37800 M⁻¹ s⁻¹ for the second.

Going from B17 to B18, the kon rises from 45100 M⁻¹ s⁻¹ to 432000 M⁻¹ s⁻¹ (9.6-fold).

First: B19
Second: B20
The kon of the first is 12-fold higher: 44100 M⁻¹ s⁻¹ for the first, 3770 M⁻¹ s⁻¹ for the second.

B21 and B22 are within 1.5-fold of each other in kon: 4150 M⁻¹ s⁻¹ for the first, 4090 M⁻¹ s⁻¹ for the second.

Compared with B23, B24 is 11-fold higher in kon: 3120 M⁻¹ s⁻¹ for the first, 33100 M⁻¹ s⁻¹ for the second.

Going from B25 to B26, the kon falls from 483000 M⁻¹ s⁻¹ to 47400 M⁻¹ s⁻¹ (10-fold).

B27 and B28 are within 1.5-fold of each other in kon: 36200 M⁻¹ s⁻¹ for the first, 49700 M⁻¹ s⁻¹ for the second.

Compared with B29, B30 is 7.6-fold higher in kon: 46700 M⁻¹ s⁻¹ for the first, 357000 M⁻¹ s⁻¹ for the second.

B31 and B32 are within 1.5-fold of each other in kon: 33200 M⁻¹ s⁻¹ for the first, 30100 M⁻¹ s⁻¹ for the second.

B33 and B34 are within 1.5-fold of each other in kon: 36900 M⁻¹ s⁻¹ for the first, 32400 M⁻¹ s⁻¹ for the second.

B35 and B36 are within 1.5-fold of each other in kon: 41800 M⁻¹ s⁻¹ for the first, 42400 M⁻¹ s⁻¹ for the second.

Going from B37 to B38, the kon falls from 408000 M⁻¹ s⁻¹ to 45200 M⁻¹ s⁻¹ (9-fold).

B39 showed a kon of 38100 M⁻¹ s⁻¹.
